# B1: Double-strand-break repair protein rad21 homolog (Homo sapiens), O60216 (parent)
# chain: MFYAHFVLSKRGPLAKIWLAAHWDKKLTKAHVFECNLESSVESIISPKVKMALRTSGHLLLGVVRIYHRKAKYLLADCNEAFIKIKMAFRPGVVDLPEENREAAYNAITLPEEFHDFDQPLPDLDDIDVAQQFSLNQSRVEEITMREEVGNISILQENDFGDFGMDDREIMREGSAFEDDDMLVSTTTSNLLLESEQSTSNLNEKINHLEYEDQYKDDNFGEGNDGGILDDKLISNNDGGIFDDPPALSEAGVMLPEQPAHDDMDEDDNVSMGGPDSPDSVDPVEPMPTMTDQTTLVPNEEEAFALEPIDITVKETKAKRKRKLIVDSVKELDSKTIRAQLSDYSDIVTTLDLAPPTKKLMMWKETGGVEKLFSLPAQPLWNNRLLKLFTRCLTPLVPEDLRKRRKGGEADNLDEFLKEFENPEVPREDQQQQHQQRDVIDEPIIEEPSRLQESVMEASRTNIDESAMPPPPPQGVKRKAGQIDPEPVMPPQQVEQMEIPPVELPPEEPPNICQLIPELELLPEKEKEKEKEKEDDEEEEDEDASGGDQDQEERRWNKRTQQMLHGLQRALAKTGAESISLLELCRNTNRKQAAAKFYSFLVLKKQQAIELTQEEPYSDIIATPGPRFHII
# B2: X-linked retinitis pigmentosa GTPase regulator (Homo sapiens), Q92834 (parent)
# chain: MREPEELMPDSGAVFTFGKSKFAENNPGKFWFKNDVPVHLSCGDEHSAVVTGNNKLYMFGSNNWGQLGLGSKSAISKPTCVKALKPEKVKLAACGRNHTLVSTEGGNVYATGGNNEGQLGLGDTEERNTFHVISFFTSEHKIKQLSAGSNTSAALTEDGRLFMWGDNSEGQIGLKNVSNVCVPQQVTIGKPVSWISCGYYHSAFVTTDGELYVFGEPENGKLGLPNQLLGNHRTPQLVSEIPEKVIQVACGGEHTVVLTENAVYTFGLGQFGQLGLGTFLFETSEPKVIENIRDQTISYISCGENHTALITDIGLMYTFGDGRHGKLGLGLENFTNHFIPTLCSNFLRFIVKLVACGGCHMVVFAAPHRGVAKEIEFDEINDTCLSVATFLPYSSLTSGNVLQRTLSARMRRRERERSPDSFSMRRTLPPIEGTLGLSACFLPNSVFPRCSERNLQESVLSEQDLMQPEEPDYLLDEMTKEAEIDNSSTVESLGETTDILNMTHIMSLNSNEKSLKLSPVQKQKKQQTIGELTQDTALTENDDSDEYEEMSEMKEGKACKQHVSQGIFMTQPATTIEAFSDEEVGNDTGQVGPQADTDGEGLQKEVYRHENNNGVDQLDAKEIEKESDGGHSQKESEAEEIDSEKETKLAEIAGMKDLREREKSTKKMSPFFGNLPDRGMNTESEENKDFVKKRESCKQDVIFDSERESVEKPDSYMEGASESQQGIADGFQQPEAIEFSSGEKEDDEVETDQNIRYGRKLIEQGNEKETKPIISKSMAKYDFKCDRLSEIPEEKEGAEDSKGNGIEEQEVEANEENVKVHGGRKEKTEILSDDLTDKAEDHEFSKTEELKLEDVDEEINAENVESKKKTVGDDESVPTGYHSKTEGAERTNDDSSAETIEKKEKANLEERAICEYNENPKGYMLDDADSSSLEILENSETTPSKDMKKTKKIFLFKRVPSINQKIVKNNNEPLPEIKSIGDQIILKSDNKDADQNHMSQNHQNIPPTNTERRSKSCTIL
# partner: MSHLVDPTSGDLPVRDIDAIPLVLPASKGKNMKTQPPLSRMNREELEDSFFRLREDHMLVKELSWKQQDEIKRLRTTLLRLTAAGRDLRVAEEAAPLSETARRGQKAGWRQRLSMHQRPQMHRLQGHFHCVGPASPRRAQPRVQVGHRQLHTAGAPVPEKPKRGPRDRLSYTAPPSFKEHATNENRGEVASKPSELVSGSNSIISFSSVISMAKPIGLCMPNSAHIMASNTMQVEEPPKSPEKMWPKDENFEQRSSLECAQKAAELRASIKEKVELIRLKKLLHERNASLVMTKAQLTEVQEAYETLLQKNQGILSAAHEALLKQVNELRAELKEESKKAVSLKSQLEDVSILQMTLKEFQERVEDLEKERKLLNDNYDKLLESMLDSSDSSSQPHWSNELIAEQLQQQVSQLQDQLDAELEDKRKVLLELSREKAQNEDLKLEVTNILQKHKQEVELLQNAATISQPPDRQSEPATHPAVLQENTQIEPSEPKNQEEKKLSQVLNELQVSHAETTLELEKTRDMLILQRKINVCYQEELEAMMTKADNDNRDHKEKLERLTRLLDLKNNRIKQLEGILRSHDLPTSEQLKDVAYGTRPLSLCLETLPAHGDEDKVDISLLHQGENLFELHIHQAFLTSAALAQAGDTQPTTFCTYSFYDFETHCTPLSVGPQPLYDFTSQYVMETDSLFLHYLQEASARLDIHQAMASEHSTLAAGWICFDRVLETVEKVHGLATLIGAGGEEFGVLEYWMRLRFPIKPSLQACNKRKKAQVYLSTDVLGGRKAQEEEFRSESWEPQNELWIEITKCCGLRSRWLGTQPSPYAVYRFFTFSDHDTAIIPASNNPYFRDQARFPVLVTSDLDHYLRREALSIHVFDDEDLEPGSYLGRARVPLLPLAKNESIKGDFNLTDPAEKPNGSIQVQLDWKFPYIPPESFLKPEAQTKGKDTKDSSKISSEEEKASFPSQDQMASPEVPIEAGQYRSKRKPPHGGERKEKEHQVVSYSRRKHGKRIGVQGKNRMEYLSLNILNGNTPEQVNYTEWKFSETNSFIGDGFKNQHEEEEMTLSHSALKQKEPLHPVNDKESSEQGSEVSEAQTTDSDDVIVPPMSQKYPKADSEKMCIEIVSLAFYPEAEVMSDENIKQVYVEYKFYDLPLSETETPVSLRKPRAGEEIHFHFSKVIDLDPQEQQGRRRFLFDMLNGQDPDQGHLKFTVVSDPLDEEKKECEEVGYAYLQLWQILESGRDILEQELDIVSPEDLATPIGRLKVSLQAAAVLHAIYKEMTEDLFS
# B3: C-type lectin domain family 1 member A (Homo sapiens), Q8NC01 (parent)
# chain: MQAKYSSTRDMLDDDGDTTMSLHSQGSATTRHPEPRRTEHRAPSSTWRPVALTLLTLCLVLLIGLAALGLLFFQYYQLSNTGQDTISQMEERLGNTSQELQSLQVQNIKLAGSLQHVAEKLCRELYNKAGAHRCSPCTEQWKWHGDNCYQFYKDSKSWEDCKYFCLSENSTMLKINKQEDLEFAASQSYSEFFYSYWTGLLRPDSGKAWLWMDGTPFTSELFHIIIDVTSPRSRDCVAILNGMIFSKDCKELKRCVCERRAGMVKPESLHVPPETLGEGD
# partner: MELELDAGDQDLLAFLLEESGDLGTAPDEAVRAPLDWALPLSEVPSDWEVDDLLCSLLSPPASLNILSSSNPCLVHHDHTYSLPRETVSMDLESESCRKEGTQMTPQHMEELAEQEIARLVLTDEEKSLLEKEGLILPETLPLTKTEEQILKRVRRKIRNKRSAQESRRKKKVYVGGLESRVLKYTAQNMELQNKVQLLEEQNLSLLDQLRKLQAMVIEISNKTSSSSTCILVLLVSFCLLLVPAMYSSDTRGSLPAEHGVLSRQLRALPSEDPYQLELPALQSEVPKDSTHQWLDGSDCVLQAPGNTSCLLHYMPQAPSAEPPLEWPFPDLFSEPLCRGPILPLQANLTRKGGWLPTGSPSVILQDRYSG
# B4: NF-kappa-B inhibitor delta (Homo sapiens), Q8NI38 (parent)
# chain: MEAGPWRVSAPPSGPPQFPAVVPGPSLEVARAHMLALGPQQLLAQDEEGDTLLHLFAARGLRWAAYAAAEVLQVYRRLDIREHKGKTPLLVAAAANQPLIVEDLLNLGAEPNAADHQGRSVLHVAATYGLPGVLLAVLNSGVQVDLEARDFEGLTPLHTAILALNVAMRPSDLCPRVLSTQARDRLDCVHMLLQMGANHTSQEIKSNKTVLHLAVQAANPTLVQLLLELPRGDLRTFVNMKAHGNTALHMAAALPPGPAQEAIVRHLLAAGADPTLRNLENEQPVHLLRPGPGPEGLRQLLKRSRVAPPGLSS
# Variants of: B1
# Settings: with fhl3_human FHL3, Q13643
# Chain of fhl3_human FHL3, Q13643 (Q13643 whole entry): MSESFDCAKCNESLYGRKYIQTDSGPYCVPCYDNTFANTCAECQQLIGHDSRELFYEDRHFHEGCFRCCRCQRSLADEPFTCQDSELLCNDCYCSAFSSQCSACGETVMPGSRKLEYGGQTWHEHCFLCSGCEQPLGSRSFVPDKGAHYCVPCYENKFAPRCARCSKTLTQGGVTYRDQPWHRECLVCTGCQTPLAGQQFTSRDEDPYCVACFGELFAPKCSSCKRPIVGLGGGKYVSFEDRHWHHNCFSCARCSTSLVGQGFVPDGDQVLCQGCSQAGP
row,Variant,effect of a mutation on the interaction
1,P443L,with no effect

# Variants of: B2
# Settings: with rpgr1_human RPGRIP1, Q96KN7
row,Variant,effect of a mutation on the interaction
1,I75V,with no effect
2,Q184H,with no effect
3,C302S,with no effect
4,R425K,with no effect
5,I431V,with no effect
6,Q456R,with no effect

# Variants of: B3
# Settings: with creb3_human CREB3, O43889
row,Variant,effect of a mutation on the interaction
1,P272S,with no effect
2,G26A,with no effect

# Variants of: B4
# Settings: with ssxt_human SS18, Q15532
# Chain of ssxt_human SS18, Q15532 (Q15532 whole entry): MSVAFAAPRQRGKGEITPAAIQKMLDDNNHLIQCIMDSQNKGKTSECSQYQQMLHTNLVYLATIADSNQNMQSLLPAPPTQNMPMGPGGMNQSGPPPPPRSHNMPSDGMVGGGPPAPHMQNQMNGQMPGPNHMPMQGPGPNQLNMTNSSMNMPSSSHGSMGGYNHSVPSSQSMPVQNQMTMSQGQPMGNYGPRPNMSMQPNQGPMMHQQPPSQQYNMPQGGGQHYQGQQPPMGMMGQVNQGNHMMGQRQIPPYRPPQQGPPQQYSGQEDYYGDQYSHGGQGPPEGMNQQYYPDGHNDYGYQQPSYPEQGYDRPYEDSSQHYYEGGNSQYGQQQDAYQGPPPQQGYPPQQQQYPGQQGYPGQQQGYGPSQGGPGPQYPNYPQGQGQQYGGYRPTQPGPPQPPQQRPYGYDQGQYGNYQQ
row,Variant,effect of a mutation on the interaction
1,V29A,with no effect

# From IntAct's records for PubMed 31515488
